Assay results: patent publication US20160184454A1, “RAB7L1 INTERACTS WITH LRRK2 TO MODIFY INTRANEURONAL PROTEIN SORTING AND PARKINSON'S DISEASE RISK” (THE TRUSTEES OF COLUMBIA UNIVERSITY IN THE CITY OF NEW YORK, priority 2013, published 2016)

B1: RAB3A: Rab family member expression vector (protein, UniProt P20336 1-220, looked up)
Ras-related protein Rab-3A: MASATDSRYGQKESSDQNFDYMFKILIIGNSSVGKTSFLFRYADDSFTPAFVSTVGIDFKVKTIYRNDKRIKLQIWDTAGQERYRTITTAYYRGAMGFILMYDITNEESFNAVQDWSTQIKTYSWDNAQVLLVGNKCDMEDERVVSSERGRQLADHLGFEFFEASAKDNINVKQTFERLVDVICEKMSESLDTADPAVTGAKQGPQLSDQQVPPHQDCAC
B2: RAB5A: Rab family member expression vector (protein, UniProt P20339 1-215, looked up)
Ras-related protein Rab-5A: MASRGATRPNGPNTGNKICQFKLVLLGESAVGKSSLVLRFVKGQFHEFQESTIGAAFLTQTVCLDDTTVKFEIWDTAGQERYHSLAPMYYRGAQAAIVVYDITNEESFARAKNWVKELQRQASPNIVIALSGNKADLANKRAVDFQEAQSYADDNSLLFMETSAKTSMNVNEIFMAIAKKLPKNEPQNPGANSARGRGVDLTEPTQPTRNQCCSN
B3: NUCKS1: PARK16 locus gene overexpression vector (protein, UniProt Q9H1E3 1-243, looked up)
Nuclear ubiquitous casein and …: MSRPVRNRKVVDYSQFQESDDADEDYGRDSGPPTKKIRSSPREAKNKRRSGKNSQEDSEDSEDKDVKTKKDDSHSAEDSEDEKEDHKNVRQQRQAASKAASKQREMLMEDVGSEEEQEEEDEAPFQEKDSGSDEDFLMEDDDDSDYGSSKKKNKKMVKKSKPERKEKKMPKPRLKATVTPSPVKGKGKVGRPTASKASKEKTPSPKEEDEEPESPPEKKTSTSPPPEKSGDEGSEDEAPSGED
B4: SLC45A3: PARK16 locus gene overexpression vector (protein, UniProt Q96JT2 1-553, looked up)
Solute carrier family 45 …: MVQRLWVSRLLRHRKAQLLLVNLLTFGLEVCLAAGITYVPPLLLEVGVEEKFMTMVLGIGPVLGLVCVPLLGSASDHWRGRYGRRRPFIWALSLGILLSLFLIPRAGWLAGLLCPDPRPLELALLILGVGLLDFCGQVCFTPLEALLSDLFRDPDHCRQAYSVYAFMISLGGCLGYLLPAIDWDTSALAPYLGTQEECLFGLLTLIFLTCVAATLLVAEEAALGPTEPAEGLSAPSLSPHCCPCRARLAFRNLGALLPRLHQLCCRMPRTLRRLFVAELCSWMALMTFTLFYTDFVGEGLYQGVPRAEPGTEARRHYDEGVRMGSLGLFLQCAISLVFSLVMDRLVQRFGTRAVYLASVAAFPVAAGATCLSHSVAVVTASAALTGFTFSALQILPYTLASLYHREKQVFLPKYRGDTGGASSEDSLMTSFLPGPKPGAPFPNGHVGAGGSGLLPPPPALCGASACDVSVRVVVGEPTEARVVPGRGICLDLAILDSAFLLSQVAPSLFMGSIVQLSQSVTAYMVSAAGLGLVAIYFATQVVFDKSDLAKYSA
B5: PM20D1: PARK16 locus gene overexpression vector (protein, UniProt Q6GTS8 26-502, looked up)
N-fatty-acyl-amino acid …: MGPRSGEHQRASRIPSQFSKEERVAMKEALKGAIQIPTVTFSSEKSNTTALAEFGKYIHKVFPTVVSTSFIQHEVVEEYSHLFTIQGSDPSLQPYLLMAHFDVVPAPEEGWEVPPFSGLERDGIIYGRGTLDDKNSVMALLQALELLLIRKYIPRRSFFISLGHDEESSGTGAQRISALLQSRGVQLAFIVDEGGFILDDFIPNFKKPIALIAVSEKGSMNLMLQVNMTSGHSSAPPKETSIGILAAAVSRLEQTPMPIIFGSGTVVTVLQQLANEFPFPVNIILSNPWLFEPLISRFMERNPLTNAIIRTTTALTIFKAGVKFNVIPPVAQATVNFRIHPGQTVQEVLELTKNIVADNRVQFHVLSAFDPLPVSPSDDKALGYQLLRQTVQSVFPEVNITAPVTSIGNTDSRFFTNLTTGIYRFYPIYIQPEDFKRIHGVNEKISVQAYETQVKFIFELIQNADTDQEPVSHLHKL

System: rat primary cortical neurons
Assay: Neurite length assay in transfected primary cortical neuron cultures
Format: cell-based
Conditions: co-transfection with LRRK2 G2019S (0.5 μg/well); test vector 1 μg/well
Description: As 5 candidate genes are present within the PARK16 locus (SLC45A3, NUCKS, RAB7L1, SLC41A1, and PM20D1), each of the genes were experimentally screened for a functional interaction with LRRK2 (FIG. 2A). A previously-described primary rat neuron in vitro culture model was used, in which transient expression of familial PD-associated LRRK2 G2019S or R1441C mutant alleles leads to a marked reduction in neurite process length (MacLeod et al., 2006). […] RAB7L1 is a small cytosolic GTPase, structurally distinct from RAB7 despite its name (also known as RAB29) (Shimizu et al., 1997). […] But the function of RAB7L1 in CNS neurons remains unknown. Orthologues of RAB7L1 in other organisms, including C. elegans Glo-1 and Drosophila melanogaster Lighloid, have been implicated in trafficking to lysosome-related organelles (Hermann et al., 2005) and in the regulation of neurite process length (Grill et al., 2007), reminiscent of LRRK2 mutant phenotypes (MacLeod et al., 2006). Thus this gene was of particular interest.
Sprague-Dawley rat or mouse PI primary dissociated cortical cultures were prepared and transfected essentially as described (Xia et al., 1996) with the following modifications: cells were plated at high density, approximately 250,000 cells/cm2, in 24-well plates with 500 ul medium/well. Culture medium used for plating cells was Neurobasal-A supplemented with 2% B-27 and 10% FBS. At 1 day after plating, medium was changed to reduced serum (1% FBS+added antimitotic agents: 70 μM uridine and 25 μM 5-fluorodeoxyuridine) and replaced weekly thereafter; for transfections no DMSO was added to the transfection mixture, cells were not subjected to glycerol shock, and a total of 3 μg plasmid DNA was used per well. Cells were fixed in 4% PFA and immunostained with mouse α-RAB7L1 (Santa Cruz, 1:100), and rabbit monoclonal α-LRRK2 (Michal J. Fox Foundation MJFF4, 1:100), then with appropriate fluorescent secondaries (Jackson, 1:1000-2000). Neurite length and neurite puncta (defined as swellings greater than 2 um in diameter) were counted for at least 20 neurons per condition. Mean puncta number per neuron was normalized to total average neurite length versus wild-type LRRK2 transfected cells. Fluorescent microscopy was performed using a Nikon TE 2000-S microscope and a Zeiss LSM510 Meta confocal microscope. Images were analyzed using Image-Pro Plus (Mediacybernetics) software version 5.1.0.20.

Row | Molecule | LRRK2 mutation-induced neurite length phenotype
1 | SLC41A1: PARK16 locus gene overexpression vector | failed to rescue
2 | B1 | failed to rescue the phenotype
3 | B2 | failed to rescue the phenotype
4 | B3 | failed to rescue
5 | B4 | failed to rescue
6 | B5 | failed to rescue
